Results taken from patent publication US20200292534A1.

T1: NLpoly11S
T1 chain: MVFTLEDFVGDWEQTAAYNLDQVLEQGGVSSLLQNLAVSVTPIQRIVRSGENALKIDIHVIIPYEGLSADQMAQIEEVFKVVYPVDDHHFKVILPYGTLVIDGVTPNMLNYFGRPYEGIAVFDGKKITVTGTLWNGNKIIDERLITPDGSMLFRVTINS

B1: array2.29 (peptide)
peptide: VTGYRLFKKAL
modifications: not checked
B2: array2.49 (peptide)
peptide: VTGYRLFEQIL
modifications: not checked
B3: array2.47 (peptide)
peptide: VTGYRLFEKAL
modifications: not checked
B4: array2.40 (peptide)
peptide: VTGYRLFQQIL
modifications: not checked
B5: array2.44 (peptide)
peptide: VTGYRLFQEAL
modifications: not checked
B6: array2.45 (peptide)
peptide: VTGYRLFQEEL
modifications: not checked
B7: array2.34 (peptide)
peptide: VTGYRLFKEIL
modifications: not checked
B8: array2.43 (peptide)
peptide: VTGYRLFQEIL
modifications: not checked
B9: array2.51 (peptide)
peptide: VTGYRLFEQEL
modifications: not checked
B10: array2.46 (peptide)
peptide: VTGYRLFEKIL
modifications: not checked
B11: array2.4 (peptide)
peptide: VTGYRLFKQIS
modifications: not checked
B12: array2.33 (peptide)
peptide: VTGYRLFKQEL
modifications: not checked
B13: array2.48 (peptide)
peptide: VTGYRLFEKEL
modifications: not checked
B14: array2.28 (peptide)
peptide: VTGYRLFKKIL
modifications: not checked
B15: array2.41 (peptide)
peptide: VTGYRLFQQAL
modifications: not checked
B16: array2.38 (peptide)
peptide: VTGYRLFQKAL
modifications: not checked
B17: array2.36 (peptide)
peptide: VTGYRLFKEEL
modifications: not checked
B18: array2.31 (peptide)
peptide: VTGYRLFKQIL
modifications: not checked
B19: array2.35 (peptide)
peptide: VTGYRLFKEAL
modifications: not checked
B20: array2.37 (peptide)
peptide: VTGYRLFQKIL
modifications: not checked
B21: array2.39 (peptide)
peptide: VTGYRLFQKEL
modifications: not checked
B22: array2.32 (peptide)
peptide: VTGYRLFKQAL
modifications: not checked
B23: array2.3 (peptide)
peptide: VTGYRLFKKES
modifications: not checked
B24: array2.50 (peptide)
peptide: VTGYRLFEQAL
modifications: not checked
B25: array2.30 (peptide)
peptide: VTGYRLFKKEL
modifications: not checked
B26: array2.42 (peptide)
peptide: VTGYRLFQQEL
modifications: not checked

Target: T1, NLpoly11S
Assay: luminescence complementation titration, one-site specific binding fit

For B1, which Bmax is on record?
The Bmax was 98600.

What about the Kd of the same binder?
The Kd was 0.276 µM.

For B2, which Bmax is on record?
Its Bmax is 99200.

What about the Kd of the same binder?
The Kd was 124 µM.

How did the Bmax turn out when B3 was run?
The Bmax was 34500.

And the Kd?
The Kd was 1.81 µM.

Which results are given for B4?
Bmax: 66300; Kd: 122 µM

Which Bmax does the source give for B5 here?
Its Bmax is 4230.

And the Kd?
The Kd was 16 µM.

What does the source list for B6?
Bmax: 14300; Kd: 35.4 µM

Which Bmax does the source give for B7 here?
Its Bmax is 21900.

What about the Kd of the same binder?
The Kd was 4.41 µM.

How did the Bmax turn out when B8 was run?
Its Bmax is 9410.

What about the Kd of the same binder?
The Kd was 17.2 µM.

Which results are given for B9?
Bmax: 46200; Kd: 85 µM

B10 was tested. Which Bmax did it give?
Its Bmax is 219000.

And the Kd?
Its Kd is 1.92 µM.

Which results are given for B11?
Bmax: 104000; Kd: 0.746 µM

For B12, which Bmax is on record?
Its Bmax is 8550.

What about the Kd of the same binder?
Its Kd is 1.95 µM.

Which results are given for B13?
Bmax: 10900; Kd: 2.44 µM

B14 was tested. Which Bmax did it give?
Its Bmax is 141000.

And the Kd?
Its Kd is 0.0766 µM.

Which results are given for B15?
Bmax: 3470; Kd: 3.97 µM

B16 was tested. Which Bmax did it give?
Its Bmax is 72800.

What about the Kd of the same binder?
The Kd was 0.975 µM.

What does the source list for B17?
Bmax: 1720; Kd: 7.79 µM

With B18 as the binder, how does the Bmax read?
The Bmax was 115000.

And the Kd?
Its Kd is 2.99 µM.

Which results are given for B19?
Bmax: 5550; Kd: 5.15 µM

Which Bmax does the source give for B20 here?
The Bmax was 127000.

And the Kd?
The Kd was 0.362 µM.

B21 was tested. Which Bmax did it give?
Its Bmax is 33100.

What about the Kd of the same binder?
Its Kd is 2.48 µM.

Which results are given for B22?
Bmax: 34900; Kd: 3.56 µM

What does the source list for B23?
Bmax: 56000; Kd: 0.773 µM

What does the source list for B24?
Bmax: 17100; Kd: 40.4 µM

Which results are given for B25?
Bmax: 51100; Kd: 0.671 µM

B26 was tested. Which Bmax did it give?
The Bmax was 14200.

And the Kd?
The Kd was 19 µM.
